Test results: patent US20220267436A1 (NANJING GENSCRIPT BIOTECH, published 2022)

T1: human LAG-3 (human, UniProt P18627 23-525)
T1 construct: whole, on cells; also called LAG-3 antigen
T1 sequence (looked up): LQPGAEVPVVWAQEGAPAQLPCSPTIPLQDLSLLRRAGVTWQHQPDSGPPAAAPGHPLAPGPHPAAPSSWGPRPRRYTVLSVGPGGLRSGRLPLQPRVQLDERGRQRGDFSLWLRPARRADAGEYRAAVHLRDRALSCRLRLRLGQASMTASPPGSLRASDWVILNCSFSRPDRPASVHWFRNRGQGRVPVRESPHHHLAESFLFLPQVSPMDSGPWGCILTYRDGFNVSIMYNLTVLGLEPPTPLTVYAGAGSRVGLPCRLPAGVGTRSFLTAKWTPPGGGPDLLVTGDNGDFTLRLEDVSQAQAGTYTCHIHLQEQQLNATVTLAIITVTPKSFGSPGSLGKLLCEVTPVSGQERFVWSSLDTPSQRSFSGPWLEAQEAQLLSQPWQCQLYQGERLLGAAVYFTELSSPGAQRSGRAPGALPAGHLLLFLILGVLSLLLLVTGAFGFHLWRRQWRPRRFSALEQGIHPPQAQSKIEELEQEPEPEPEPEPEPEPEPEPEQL


How the values were obtained:
human LAG-3 = molecular target: T1, human LAG-3; experiment: flow cytometry on CHO-K1 cells expressing human LAG-3
Method: (§1) For the constructed series of bispecific antibodies, the affinity of these samples with antigens was measured by using a flow cytometer. […] Then, an antibody-antigen binding curve was generated based on the geometric mean, raw data of four parameters was plotted by using the […] Prism V6.02 software, and a best fitted value program was compiled to analyze EC₅₀.

human CD47 = molecular target: T2, human CD47 (human, UniProt Q08722 19-323); experiment: flow cytometry on CHO-K1 cells expressing human CD47
T2 construct: whole, on cells; also called CD47 antigen; integrin associated protein
Method: as §1

T2 sequence (Q08722 19-323): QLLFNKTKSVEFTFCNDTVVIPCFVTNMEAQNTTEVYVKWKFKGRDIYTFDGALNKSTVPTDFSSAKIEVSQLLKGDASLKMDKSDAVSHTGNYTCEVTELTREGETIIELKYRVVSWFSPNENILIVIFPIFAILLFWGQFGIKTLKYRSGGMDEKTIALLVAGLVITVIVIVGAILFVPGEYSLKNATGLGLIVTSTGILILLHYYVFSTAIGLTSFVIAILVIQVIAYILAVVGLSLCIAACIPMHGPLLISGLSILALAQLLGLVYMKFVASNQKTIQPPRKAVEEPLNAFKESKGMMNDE

Row | Binder | binding result (human LAG-3) | binding result (human CD47)
1 | bispecific antibody LAG3-E-HC (bispecific antibody, human IgG4 S228P, kappa, Two identical fused chains and two identical natural chains; also called H1 + L0) heavy: not shown light: EIVLTQSPATLSLSPGERATLSCRASENVGTYISWYQQKPGQAPRLLIYGASNRYTGIPARFSGSGSGTDFTLTISSLEPEDFAVYYCGESYGHLYTFGGGTKVEIKRTVAAPSVFIFPPSDEQLKSGTASVVCLLNNFYPREAKVQWKVDNALQSGNSQESVTEQDSKDSTYSLSSTLTLSKADYEKHKVYACEVTHQGLSSPVTKSFNRGEC | binds | –
2 | bispecific antibody LAG3-G9-HN (bispecific antibody, human IgG4 S228P, kappa, Two identical fused chains and two identical natural chains; also called H4 + L0) heavy: not shown light: EIVLTQSPATLSLSPGERATLSCRASENVGTYISWYQQKPGQAPRLLIYGASNRYTGIPARFSGSGSGTDFTLTISSLEPEDFAVYYCGESYGHLYTFGGGTKVEIKRTVAAPSVFIFPPSDEQLKSGTASVVCLLNNFYPREAKVQWKVDNALQSGNSQESVTEQDSKDSTYSLSSTLTLSKADYEKHKVYACEVTHQGLSSPVTKSFNRGEC | binds | –
3 | bispecific antibody LAG3-G15-HC (bispecific antibody, human IgG4 S228P, kappa, Two identical fused chains and two identical natural chains; also called H5 + L0) heavy: not shown light: EIVLTQSPATLSLSPGERATLSCRASENVGTYISWYQQKPGQAPRLLIYGASNRYTGIPARFSGSGSGTDFTLTISSLEPEDFAVYYCGESYGHLYTFGGGTKVEIKRTVAAPSVFIFPPSDEQLKSGTASVVCLLNNFYPREAKVQWKVDNALQSGNSQESVTEQDSKDSTYSLSSTLTLSKADYEKHKVYACEVTHQGLSSPVTKSFNRGEC | binds | –
4 | bispecific antibody LAG3-E-HN (bispecific antibody, human IgG4 S228P, kappa, Two identical fused chains and two identical natural chains; also called H2 + L0) heavy: not shown light: EIVLTQSPATLSLSPGERATLSCRASENVGTYISWYQQKPGQAPRLLIYGASNRYTGIPARFSGSGSGTDFTLTISSLEPEDFAVYYCGESYGHLYTFGGGTKVEIKRTVAAPSVFIFPPSDEQLKSGTASVVCLLNNFYPREAKVQWKVDNALQSGNSQESVTEQDSKDSTYSLSSTLTLSKADYEKHKVYACEVTHQGLSSPVTKSFNRGEC | binds | –
5 | bispecific antibody LAG3-G15-HN (bispecific antibody, human IgG4 S228P, kappa, Two identical fused chains and two identical natural chains; also called H6 + L0) heavy: not shown light: EIVLTQSPATLSLSPGERATLSCRASENVGTYISWYQQKPGQAPRLLIYGASNRYTGIPARFSGSGSGTDFTLTISSLEPEDFAVYYCGESYGHLYTFGGGTKVEIKRTVAAPSVFIFPPSDEQLKSGTASVVCLLNNFYPREAKVQWKVDNALQSGNSQESVTEQDSKDSTYSLSSTLTLSKADYEKHKVYACEVTHQGLSSPVTKSFNRGEC | binds | –
6 | bispecific antibody LAG3-G9-HC (bispecific antibody, human IgG4 S228P, kappa, Two identical fused chains and two identical natural chains; also called LAGS-G9-HC; H3 + L0) heavy: not shown light: EIVLTQSPATLSLSPGERATLSCRASENVGTYISWYQQKPGQAPRLLIYGASNRYTGIPARFSGSGSGTDFTLTISSLEPEDFAVYYCGESYGHLYTFGGGTKVEIKRTVAAPSVFIFPPSDEQLKSGTASVVCLLNNFYPREAKVQWKVDNALQSGNSQESVTEQDSKDSTYSLSSTLTLSKADYEKHKVYACEVTHQGLSSPVTKSFNRGEC | binds | –
7 | bispecific antibody LAG3-G9-LC (bispecific antibody, human IgG4 S228P, kappa, Two identical fused chains and two identical natural chains; also called L3 + H0) heavy: not shown light: EIVLTQSPATLSLSPGERATLSCRASENVGTYISWYQQKPGQAPRLLIYGASNRYTGIPARFSGSGSGTDFTLTISSLEPEDFAVYYCGESYGHLYTFGGGTKVEIKRTVAAPSVFIFPPSDEQLKSGTASVVCLLNNFYPREAKVQWKVDNALQSGNSQESVTEQDSKDSTYSLSSTLTLSKADYEKHKVYACEVTHQGLSSPVTKSFNRGECGGGGSGGGSEVQLVESGGGLVQPGGSLRLSCAASGYTVSSYCMGWFRQAPGKGREGVSAIDSDGSVSYADSVKGRFTISKDNSKNTLYLQMNSLRAEDTAVYFCAADLCWVDQDQGEYNTWGQGTLVTVSS | binds | binds

Continued, values first:

Row | binding result (human LAG-3) | binding result (human CD47) | Binder
8 | binds | – | bispecific antibody LAG3-G9-LN (bispecific antibody, human IgG4 S228P, kappa, Two identical fused chains and two identical natural chains; also called L4 + H0) heavy: not shown light: EVQLVESGGGLVQPGGSLRLSCAASGYTVSSYCMGWFRQAPGKGREGVSAIDSDGSVSYADSVKGRFTISKDNSKNTLYLQMNSLRAEDTAVYFCAADLCWVDQDQGEYNTWGQGTLVTVSSGGGGSGGGSEIVLTQSPATLSLSPGERATLSCRASENVGTYISWYQQKPGQAPRLLIYGASNRYTGIPARFSGSGSGTDFTLTISSLEPEDFAVYYCGESYGHLYTFGGGTKVEIKRTVAAPSVFIFPPSDEQLKSGTASVVCLLNNFYPREAKVQWKVDNALQSGNSQESVTEQDSKDSTYSLSSTLTLSKADYEKHKVYACEVTHQGLSSPVTKSFNRGEC
9 | binds | – | bispecific antibody LAG3-E-LC (bispecific antibody, human IgG4 S228P, kappa, Two identical fused chains and two identical natural chains; also called L1 + H0) heavy: not shown light: EIVLTQSPATLSLSPGERATLSCRASENVGTYISWYQQKPGQAPRLLIYGASNRYTGIPARFSGSGSGTDFTLTISSLEPEDFAVYYCGESYGHLYTFGGGTKVEIKRTVAAPSVFIFPPSDEQLKSGTASVVCLLNNFYPREAKVQWKVDNALQSGNSQESVTEQDSKDSTYSLSSTLTLSKADYEKHKVYACEVTHQGLSSPVTKSFNRGECEPKSSDKTHTSPPSPEVQLVESGGGLVQPGGSLRLSCAASGYTVSSYCMGWFRQAPGKGREGVSAIDSDGSVSYADSVKGRFTISKDNSKNTLYLQMNSLRAEDTAVYFCAADLCWVDQDQGEYNTWGQGTLVTVSS
10 | binds | – | bispecific antibody LAG3-G15-LN (bispecific antibody, human IgG4 S228P, kappa, Two identical fused chains and two identical natural chains; also called L6 + H0) heavy: not shown light: EVQLVESGGGLVQPGGSLRLSCAASGYTVSSYCMGWFRQAPGKGREGVSAIDSDGSVSYADSVKGRFTISKDNSKNTLYLQMNSLRAEDTAVYFCAADLCWVDQDQGEYNTWGQGTLVTVSSGGGGSGGGGSGGGGSEIVLTQSPATLSLSPGERATLSCRASENVGTYISWYQQKPGQAPRLLIYGASNRYTGIPARFSGSGSGTDFTLTISSLEPEDFAVYYCGESYGHLYTFGGGTKVEIKRTVAAPSVFIFPPSDEQLKSGTASVVCLLNNFYPREAKVQWKVDNALQSGNSQESVTEQDSKDSTYSLSSTLTLSKADYEKHKVYACEVTHQGLSSPVTKSFNRGEC
11 | – | binds | anti-CD47 monoclonal antibody (mAb) (antibody, human IgG4 S228P, kappa, V domains shown, Full-length antibody composed of heavy chain H0 and light chain L0; also called anti-CD47 mAb; anti-CD47 antibody control) VH: EVQLVQSGAEVKKPGSSVKVSCKASGYSFTHHWIHWVRQAPGQGLEWMGMIDASDSETRLSQKFKDRVTITADKSTSTAYMELSSLRSEDTAVYYCARLGRYYFDYWGQGTTVTVSS VL: EIVLTQSPATLSLSPGERATLSCRASENVGTYISWYQQKPGQAPRLLIYGASNRYTGIPARFSGSGSGTDFTLTISSLEPEDFAVYYCGESYGHLYTFGGGTKVEIKR
12 | binds | binds | bispecific antibody LAG3-G15-LC (bispecific antibody, human IgG4 S228P, kappa, Two identical fused chains and two identical natural chains; also called L5 + H0) heavy: not shown light: EIVLTQSPATLSLSPGERATLSCRASENVGTYISWYQQKPGQAPRLLIYGASNRYTGIPARFSGSGSGTDFTLTISSLEPEDFAVYYCGESYGHLYTFGGGTKVEIKRTVAAPSVFIFPPSDEQLKSGTASVVCLLNNFYPREAKVQWKVDNALQSGNSQESVTEQDSKDSTYSLSSTLTLSKADYEKHKVYACEVTHQGLSSPVTKSFNRGECGGGGSGGGGSGGGGSEVQLVESGGGLVQPGGSLRLSCAASGYTVSSYCMGWFRQAPGKGREGVSAIDSDGSVSYADSVKGRFTISKDNSKNTLYLQMNSLRAEDTAVYFCAADLCWVDQDQGEYNTWGQGTLVTVSS
13 | binds | – | bispecific antibody LAG3-E-LN (bispecific antibody, human IgG4 S228P, kappa, Two identical fused chains and two identical natural chains; also called L2 + H0) heavy: not shown light: EVQLVESGGGLVQPGGSLRLSCAASGYTVSSYCMGWFRQAPGKGREGVSAIDSDGSVSYADSVKGRFTISKDNSKNTLYLQMNSLRAEDTAVYFCAADLCWVDQDQGEYNTWGQGTLVTVSSEPKSSDKTHTSPPSPEIVLTQSPATLSLSPGERATLSCRASENVGTYISWYQQKPGQAPRLLIYGASNRYTGIPARFSGSGSGTDFTLTISSLEPEDFAVYYCGESYGHLYTFGGGTKVEIKRTVAAPSVFIFPPSDEQLKSGTASVVCLLNNFYPREAKVQWKVDNALQSGNSQESVTEQDSKDSTYSLSSTLTLSKADYEKHKVYACEVTHQGLSSPVTKSFNRGEC
